Assay results from patent US20220073604A1 (ARGENX BVBA, published 2022).
Positions count from the first letter of the chain named. One block for each binder: values may come before it.

Columns and labels:
[1] = biological target: human IL-6 (human, UniProt P05231 30-212); test: cell-based or functional assay
[2] = biological target: T1, human IL-6 (as added in the B9 and 7TD1 bioassays) (human, UniProt P05231 30-212); test: cell-based or functional assay
[3] = biological target: T1, human IL-6 (as added in the B9 and 7TD1 …); test: cell-based or functional assay; remark: listed apart in the source
[4] = biological target: T1, human IL-6 (as added in the B9 and 7TD1 …); test: cell-based or functional assay; remark: listed apart in the source
[5] = biological target: T2, cynomolgus monkey IL-6 (cynomolgus monkey, UniProt P79341 28-212, limits assumed); test: SPR; periplasmic fraction
T2 construct: also called HIS-cyIL-6

[6] = biological target: T3, bacterially produced human IL-6 (human, UniProt P05231 30-212); test: SPR; periplasmic fraction
T3 construct: also called bactIL-6; prokaryotic IL-6

[7] = biological target: T4, eukaryotically produced human IL-6 (human, UniProt P05231 30-212); test: SPR; periplasmic fraction
T4 construct: also called eukIL-6; Euk IL-6

[8] = biological target: T2, cynomolgus monkey IL-6; test: SPR; periplasmic fraction; against parental 29B11
[9] = biological target: T3, bacterially produced human IL-6; test: SPR; periplasmic fraction; against parental 29B11
[10] = biological target: T4, eukaryotically produced human IL-6; test: SPR; periplasmic fraction; against parental 29B11

IC50, proliferation of IL-6-dependent B9 cells with 10 pg/ml human IL-6 [1]: < 0.1 pM
B1: 129D3 antibody (antibody, V domains shown)
VH: EVQLQESGPGLVKPSQTLSLTCTVSGGSITSRYYAWSWIRQPPGKGLEWIGVIDYDGDTYYSPSLKSRVSISWDTSKNQFSLKLSSVTPADTAVYYCARDPDVVTGFHYDYWGQGTMVTVSS
VL: QSALTQPPSVSGTPGQSVTISCAGANNDIGTYAYVSWYQQLPGTAPKLMIYKVTTRASGIPDRFSGSKSGNTASLTISGLQAEDEADYYCASYRNFNNAVFGTGTKLTVL
IC50, growth of IL-6-dependent 7TD1 cells with 75 pg/ml human IL-6 [1]: < 1 pM

B2: 133H2 (antibody, V domains shown)
VH: B1 VH with S31T, V69T, S70T, M117T
VL: B1 VL with S9L, T13S, S17T, L41P, T103S
IC50, growth of IL-6-dependent 7TD1 cells with 75 pg/ml human IL-6 [1]: < 1 pM

B3: 132E7 (germlined variant of 68F2) (antibody, V domains shown)
VH: B1 VH with S70T, M117T
VL: B1 VL with A3V, S9R, T13A, S17T, M49L, I60V, T72S, S78T, T103G
IC50, 7TD1 cells [2]: 0.37 pM
Potency relative to 68F2, 7TD1 cells [2]: 1.85
IC 50, B9 cell proliferation [3]: 0.38 pM
Rel. potency, B9 cells [3]: 2.1

B4: 133A9 (antibody, V domains shown)
VH: B1 VH with S31T, D56E, S70T, W73V, P89A, A90E
VL: B1 VL with S9L, T13S, S17T, L41P, K68I, A82S
IC50, growth of IL-6-dependent 7TD1 cells with 75 pg/ml human IL-6 [1]: < 1 pM

B5: 133E5 (germlined variant of 68F2) (antibody, V domains shown)
VH: B1 VH with E1Q, S70T, A90E, M117Q
VL: B1 VL with T13S, S17T, T103R
IC50, 7TD1 cells [2]: 0.1 pM
Potency relative to 68F2, 7TD1 cells [2]: 6.69
IC 50, B9 cell proliferation [3]: 0.19 pM
Rel. potency, B9 cells [3]: 4.3

B6: 68F2 (parental antibody), full-length IgG1 (antibody, V domains shown)
VH: B1 VH with S31T, I50M, V69T, K83Q, A90E, M117Q
VL: QSALTQPPLVSGTPGQTVTISCAGANNDIGTYAYVSWYQQLPGTAPKLLIYKVTTRASGIPSRFSGSKSGNTASLTISGLQSEDEADYYCASYRNFNNAVFGRGTHLTVLG
IC50, 7TD1 cells (batch A8.10) [2]: 0.67 pM
Potency relative to 68F2, 7TD1 cells (batch A8.10) [2]: 1
IC 50, B9 cell proliferation (batch 12.9) [3]: 0.98 pM
IC 50, B9 cell proliferation (batch A8.10) [3]: 0.62 pM
average IC50 of the two 68F2 batches, B9 cells [3]: 0.8 pM
IC50, 7TD1 proliferation assay, exp 7.07 (batch 24.06) [4]: 1.36 pM
IC50, 7TD1 proliferation assay, exp 7.07 (batch #12.9) [4]: 1.46 pM
IC50, 7TD1 proliferation assay, exp 22.06 (batch #12.9) [4]: 0.803 pM
IC50, 7TD1 proliferation assay, exp 29.06 (December batch) [4]: 0.645 pM
IC50, 7TD1 proliferation assay, exp 29.06 (Large batch) [4]: 1.31 pM
IC50, 7TD1 proliferation assay, exp 29.06 (batch 24.06) [4]: 0.56 pM
IC50, 7TD1 proliferation assay, exp 29.06 (batch #12.9) [4]: 0.521 pM
Rel. Potency, 7TD1, exp 29.06 (batch 24.06) [4]: 1

B7: 133H2 (germlined variant of 68F2) (antibody, V domains shown)
VH: B1 VH with S31T, V69T, S70T, M117T
VL: B1 VL with S9L, T13S, S17T, L41P, T103S
IC50, 7TD1 cells (batch A1.8) [2]: 0.35 pM
IC50, 7TD1 cells (batch A9.11) [2]: 0.47 pM
Potency relative to 68F2, 7TD1 cells (batch A1.8) [2]: 1.94
Potency relative to 68F2, 7TD1 cells (batch A9.11) [2]: 1.44
IC 50, B9 cell proliferation [3]: 0.37 pM
Rel. potency, B9 cells [3]: 2.2

Ka [5]: 1.25e+09 M⁻¹
Kd [5]: 801 pM
koff [5]: 0.000381 s⁻¹
kon [5]: 475000 M⁻¹ s⁻¹
Ka [6]: 7.6e+09 M⁻¹
Kd [6]: 132 pM
koff [6]: 7.38e-05 s⁻¹
kon [6]: 561000 M⁻¹ s⁻¹
Ka [7]: 5.55e+09 M⁻¹
Kd [7]: 180 pM
koff [7]: 7.93e-05 s⁻¹
kon [7]: 440000 M⁻¹ s⁻¹
fold improvement KD [8]: 8.25 fold
fold improvement ka [8]: 4.2 fold
fold improvement kd [8]: 1.96 fold
fold improvement KD [9]: 3.97 fold
fold improvement ka [9]: 2.24 fold
fold improvement kd [9]: 1.78 fold
fold improvement KD [10]: 3.03 fold
fold improvement ka [10]: 2.35 fold
fold improvement kd [10]: 1.29 fold
B8: Fab 55C1 (Fab, V domains shown)
VH: EVQLVESGGGLVQPGGSLRLSCAASGFTFSSYAMSWVRQAPGKGLEWVSRISSGGISTYYADSVKGRFTISRDNAKNTLYLQMNSLKPEDTAVYYCVRYAWGVQWAFDFWGQGTQVTVSS
VL: LNFMLTQPPSVSGSPGKTVTISCAGTSSDVGYGNYVSWYQQLPGTAPKLLIYNVNKRASGITDRFSGSKSGNTASLTISGLQSEDEADYYCASYRTGDNAAFGGGTKLTVLG
notes: VL-shuffled Fab of 29B11, periplasmic fraction; also called 55C1a

Ka [5]: 6.48e+08 M⁻¹
Kd [5]: 1540 pM
koff [5]: 0.00131 s⁻¹
kon [5]: 851000 M⁻¹ s⁻¹
Ka [6]: 3.56e+09 M⁻¹
Kd [6]: 281 pM
koff [6]: 0.000315 s⁻¹
kon [6]: 1.12e+06 M⁻¹ s⁻¹
Ka [7]: 3.54e+09 M⁻¹
Kd [7]: 282 pM
koff [7]: 0.00024 s⁻¹
kon [7]: 849000 M⁻¹ s⁻¹
fold improvement KD [8]: 4.29 fold
fold improvement ka [8]: 7.53 fold
fold improvement kd [8]: 0.57 fold
fold improvement KD [9]: 1.86 fold
fold improvement ka [9]: 4.46 fold
fold improvement kd [9]: 0.42 fold
fold improvement KD [10]: 1.94 fold
fold improvement ka [10]: 4.54 fold
fold improvement kd [10]: 0.43 fold
B9: Fab 47C2 (Fab, V domains shown)
VH: B8 VH
VL: LSYDLTQPPSVSGSPGKTVTISCAGTSSDVGYGNYVSWYQQLPGMAPKILIYDVNKRASGIADRFSGSKSGNTASLTISGLQSEDEADYYCASYRRGETIVFGGGTHLTVLG
notes: VL-shuffled Fab of 29B11, periplasmic fraction; also called 47C2 (R4)

Ka [5]: 1.89e+09 M⁻¹
Kd [5]: 529 pM
koff [5]: 0.000615 s⁻¹
kon [5]: 1.16e+06 M⁻¹ s⁻¹
Ka [6]: 1e+10 M⁻¹
Kd [6]: 99.7 pM
koff [6]: 0.000127 s⁻¹
kon [6]: 1.28e+06 M⁻¹ s⁻¹
Ka [7]: 1.02e+10 M⁻¹
Kd [7]: 97.7 pM
koff [7]: 0.000111 s⁻¹
kon [7]: 1.13e+06 M⁻¹ s⁻¹
fold improvement KD [8]: 12.5 fold
fold improvement ka [8]: 10.3 fold
fold improvement kd [8]: 1.21 fold
fold improvement KD [9]: 5.26 fold
fold improvement ka [9]: 5.1 fold
fold improvement kd [9]: 1.03 fold
fold improvement KD [10]: 5.59 fold
fold improvement ka [10]: 6.04 fold
fold improvement kd [10]: 0.92 fold
B10: Fab 55H1 (Fab, V domains shown)
VH: B8 VH
VL: B9 VL with L1A, S2Q, Y3S, D4V, L5V, I49L, N55S, Y90V, E98G, I100A
notes: VL-shuffled Fab of 29B11, periplasmic fraction; also called 55H1c

Ka [5]: 1.39e+09 M⁻¹
Kd [5]: 717 pM
koff [5]: 0.000336 s⁻¹
kon [5]: 468000 M⁻¹ s⁻¹
Ka [6]: 7.28e+09 M⁻¹
Kd [6]: 137 pM
koff [6]: 6.72e-05 s⁻¹
kon [6]: 489000 M⁻¹ s⁻¹
Ka [7]: 6.34e+09 M⁻¹
Kd [7]: 158 pM
koff [7]: 6.53e-05 s⁻¹
kon [7]: 414000 M⁻¹ s⁻¹
fold improvement KD [8]: 9.22 fold
fold improvement ka [8]: 4.14 fold
fold improvement kd [8]: 2.22 fold
fold improvement KD [9]: 3.82 fold
fold improvement ka [9]: 1.95 fold
fold improvement kd [9]: 1.95 fold
fold improvement KD [10]: 3.46 fold
fold improvement ka [10]: 2.21 fold
fold improvement kd [10]: 1.56 fold
B11: Fab 55E2 (Fab, V domains shown)
VH: B8 VH
VL: AQSVLTQPPSVSGSPGKTVTISCAGTSSDVGYGNYVSWYQQLPGMAPKLLIYDVNKRASGIADRFSGSKFANTASLTISGLQSEDEADYYCASYKRGDNAVFGGGTKLTVLG
notes: VL-shuffled Fab of 29B11, periplasmic fraction; also called 55E2b

B12: 111B1 (antibody, V domains shown)
VH: EVQLLESGGGLVQPGGSLRLSCAASGFTFSSYAMYWVRQPPGKGLEWVSRISAGGGSTYYGDSVKGRFTISRDNSKNTLYLQMNSLRAEDTAVYYCANRAGWGMGDYWGQGTLVTVSS
VL: QTVVTQEPSFSVSPGGTVTLTCGLSSGSVTASNYPGWFQQTPGQAPRALIYSTNDRHSGVPDRFSGSILGNKAALTITGAQAEDEADYYCALDIGDITEFGGGTQLTVL
IC50, growth of IL-6-dependent 7TD1 cells with 75 pg/ml human IL-6 [1]: < 1 pM

B13: 104C1 (antibody, V domains shown)
VH: B12 VH with P40A, S75A, L79V, R87K, A88P, L113Q
VL: QTVVTQEPSFSVSPGGTVTLTCGLSSGSVTASNYPGWYQQTPGQAPRALIYSTNDRHSGVPDRFSGSISGNKAALTITGAQADDESDYYCALDIGDITEFGGGTKLTVLG
IC50, growth of IL-6-dependent 7TD1 cells with 75 pg/ml human IL-6 [1]: < 1 pM
